Reference: patent US20260199902A1, “SYSTEM AND APPARATUS FOR THE HAND-HELD AMPLIFICATION AND DETECTION OF NUCLEIC ACIDS” (Darwin Biosciences, Inc., priority 2022, published 2026)

How the values were obtained:
RNase activity in saliva = assay: RNase Alert Assay on saliva samples; format: biochemical, human
Description: FIGS. 3A-D. Optimizing and measuring RNase inhibition by murine RNase Inhibitor (mRI). (A) Diagram of the RNase Alert assay. A quenched fluorescent ssRNA probe reports RNase activity when the quencher and fluorophore are physically separated by RNase degradation. Data is collected immediately after saliva is added to the assay and the RNase activity is calculated from a linear slope of the first 90 second of measurements. (B) RNase activity in five individual saliva samples with or without addition of 4 U/μl mRI. (C) RT-qPCR data for a panel of 12 biomarkers indicating the relative abundance of each biomarker at the indicated time after lysis. Each timepoint is from a pooled saliva sample run through a separate device. Delta Ct values were normalized to the 0 second timepoint. Horizontal bars are mean+/−standard deviation. (D) RNase activity in four saliva samples before and after rehydrating an amplification pad containing 4 U/μl of lyophilized mRI. Saliva in rehydrated pads went through a 20-minute RPA incubation at 39° C. prior to addition to the RNase Alert assay showing that RNase inhibition is long-lived. Ct=Cycle Threshold. […]
To confirm that lyophilized mRI in the amplification pad can rehydrate and inhibit saliva RNases, four amplification pads were rehydrated with saliva and the contents of the rehydrated pads were measured in the RNase Alert Assay (FIG. 3D).

saliva RNases = assay: RNase activity assay: cell line RNA incubated with treated saliva, read on Agilent TapeStation; format: biochemical, human; set-up: key: Pass (green) indicating sufficient RNase inactivation; Partial Pass (yellow) indicating partial RNase inactivation; Fail (red) indicating incomplete RNase inactivation
Description: FIG. 27. Example of saliva RNase activity assays assayed on TapeStation High Sensitivity RNA ScreenTapes (5067; Agilent). Results from three independent assays are shown. Lanes 1-3 (left to right) are experimental controls including 500 μg RNA in RNase free water, untreated saliva without added cell line RNA, and untreated saliva incubated with cell line RNA. Lanes labeled “Incomplete RNase Inactivation” contain no ribosomal RNA bands, indicating RNase activity is present. Lanes labeled “Sufficient RNase Inactivation” contain sharp ribosomal bands (similar to RNA in water), indicating RNases have been inactivated. gDNA=genomic DNA.
To screen for chemical and protein-based reagents that inhibit saliva RNases, we developed an RNase activity assay in which purified cell line RNA was incubated for 30 min at 37° C. with saliva samples after treatment with potential reagents for RNase inhibition (FIG. 2.5.3). After incubation, RNA was purified and analyzed on an Agilent TapeStation. Sharpness of the eukaryotic ribosomal RNA bands (28S and 18S) were compared to determine RNase activity in the presence of various inhibitors. In addition, the Agilent TapeStation calculates an RNA Integrity Score (RIN) as a measure of RNA quality (RIN of 10-fully intact RNA, RIN of 1=fully degraded RNA), however contaminating nucleic acid (e.g., 16S and 23S rRNA from bacteria) interferes with this calculation.
To screen for chemical and protein-based reagents that inhibit saliva RNases, we developed an RNase activity assay in which purified cell line RNA was incubated for 30 min at 37° C. with saliva samples after treatment with potential reagents for RNase inhibition (FIG. 2.5.3). After incubation, RNA was purified and analyzed on an Agilent TapeStation. Sharpness of the eukaryotic ribosomal RNA bands (28S and 18S) were compared to determine RNase activity in the presence of various inhibitors. […]

RT-RPA reactions = assay: RT-RPA interference (compatibility) testing of lysis and RNase inhibitor reagents, agarose gel; format: biochemical; set-up: key: Pass (green) indicates that reagents did not interfere with RT-RPA; Partial Pass: Partial pass (yellow) indicates that reagents had partial interference in RT-RPA; Fail (red) indicates reagents completely interfered with RT-RPA reactions; settings: 4 U/μl final in RT-RPA reaction
Description: FIG. 28. Reagent interference testing in RT-RPA. Lysis and RNase inhibitor reagents tested in RT-RPA using cDNA and RNA templates. RT-RPA reactions were prepared with varying concentrations of reagents, as labeled above (final concentrations in a 20 μl RT-RPA reaction are reported). Amplification products were run on a 2% agarose gel and band intensities were compared to control (No added reagent) reactions. Reactions labeled in red contain no reverse transcriptase. The expected size of the CXCL8 amplicon is indicated to the left of the gel. GuHCI=Guanidine hydrochloride, Triton=Triton X-100.
Reagents under consideration for the device were tested for compatibility with RT-RPA at the concentrations expected to be required for lysis. To test for interference, lysis or RNase inhibitor reagents were spiked into RT-RPA reactions with purified cell line RNA or cDNA as a template. Reactions were analyzed by agarose gel for the presence or absence of amplified products. […]

B1: NEB RI, murine: murine RNase Inhibitor (M0314; New England BioLabs) (protein, UniProt Q91VI7 1-456, looked up)
Ribonuclease inhibitor: MSLDIQCEQLSDARWTELLPLIQQYEVVRLDDCGLTEVRCKDISSAVQANPALTELSLRTNELGDGGVGLVLQGLQNPTCKIQKLSLQNCGLTEAGCGILPGMLRSLSTLRELHLNDNPMGDAGLKLLCEGLQDPQCRLEKLQLEYCNLTATSCEPLASVLRVKADFKELVLSNNDLHEPGVRILCQGLKDSACQLESLKLENCGITAANCKDLCDVVASKASLQELDLSSNKLGNAGIAALCPGLLLPSCKLRTLWLWECDITAEGCKDLCRVLRAKQSLKELSLASNELKDEGARLLCESLLEPGCQLESLWIKTCSLTAASCPYFCSVLTKSRSLLELQMSSNPLGDEGVQELCKALSQPDTVLRELWLGDCDVTNSGCSSLANVLLANRSLRELDLSNNCMGGPGVLQLLESLKQPSCTLQQLVLYDIYWTNEVEEQLRALEEERPSLRIIS
In the case of B1, the “RNase activity in saliva samples” value (RNase activity in saliva; 4 U/μL added, five donor saliva samples) is reported as “reduced the RNase activity in all five samples to negligible amounts”, the “Inhibition of RNase activity” value (RNase activity in saliva; lyophilized in amplification pad, rehydrated with saliva, four pads) is reported as “Nearly complete inhibition of RNase activity” and the “Inactivation of saliva RNases, Result” value (saliva RNases; 4 U/μl) is reported as “Partial”. For the same molecule, the “Inactivation of saliva RNases, Result” value (saliva RNases; 8 U/μl) was “Pass” and the “Compatibility in RT-RPA, Result” value (RT-RPA reactions) was “Pass”.

B2: Proteinase K: listed under Protein RNase Inhibitors (protein, UniProt P06873 106-384, looked up)
Proteinase K: AAQTNAPWGLARISSTSPGTSTYYYDESAGQGSCVYVIDTGIEASHPEFEGRAQMVKTYYYSSRDGNGHGTHCAGTVGSRTYGVAKKTQLFGVKVLDDNGSGQYSTIIAGMDFVASDKNNRNCPKGVVASLSLGGGYSSSVNSAAARLQSSGVMVAVAAGNNNADARNYSPASEPSVCTVGASDRYDRRSSFSNYGSVLDIFGPGTSILSTWIGGSTRSISGTSMATPHVAGLAAYLMTLGKTTAASACRYIADTANKGDLSNIPFGTVNLLAYNNYQA
In the case of B2, the “Inactivation of saliva RNases, Result” value (saliva RNases; 50 μg/ml and 2.5 mg/ml) is reported as “Fail”.
